Source: patent US20240116985A1, “STAPLED PEPTIDES AND METHODS THEREOF” (priority 2020, published 2024)
Blank lines part the entries; values can stand above or below the binder they belong to. Starred links: 1 amine or outer side, 2 acyl side, 3 side chain; linkers in the order of their positions; H or OH if unused. Positions of bridges follow the written chain, without caps; N, C: chain ends. Non-standard residues stand in square brackets, D forms with d. Primed or numbered codes have the meaning given here. PyrS2″ = (S)-3-amino-1-((pent-4-en-1-yloxy)carbonyl)pyrrolidine-3-carboxylic acid (stapling residue), C=CCCCOC(=O)N1CC[C@@](N[*:1])(C(=O)[*:2])C1; B5(4) = 2,2-bis(4-pentenyl)glycine = 2-amino-2-(pent-4-en-1-yl)hept-6-enoic acid (stitching residue), C=CCCCC(CCCC=C)(N[*:1])C(=O)[*:2]; B5(5) = 2,2-bis(4-pentenyl)glycine, 2-amino-2-(pent-4-en-1-yl)hept-6-enoic acid (stitching residue), C=CCCCC(CCCC=C)(N[*:1])C(=O)[*:2]; TfeGA = (S)-2-amino-3-((carboxymethyl)(2,2,2-trifluoroethyl)amino)propanoic acid, O=C([C@H](CN(CC(=O)[*:3])CC(F)(F)F)N[*:1])[*:2]; PyrS2 = (S)-3-amino-1-((pent-4-en-1-yloxy)carbonyl)pyrrolidine-3-carboxylic acid, C=CCCCOC(=O)N1CC[C@@](N[*:1])(C(=O)[*:2])C1; SPip2 = 4-amino-1-((pent-4-en-1-yloxy)carbonyl)piperidine-4-carboxylic acid, C=CCCCOC(=O)N1CCC(N[*:1])(C(=O)[*:2])CC1; B5(12) = 2-amino-2-(pent-4-en-1-yl)hept-6-enoic acid (two olefin side chains), C=CCCCC(CCCC=C)(N[*:1])C(=O)[*:2]; B5(25) = 2-amino-2-(pent-4-en-1-yl)hept-6-enoic acid (stitching residue), C=CCCCC(CCCC=C)(N[*:1])C(=O)[*:2]; EtGA = (S)-2-amino-3-((carboxymethyl)(ethyl)amino)propanoic acid, CCN(CC(=O)[*:3])C[C@H](N[*:1])C(=O)[*:2]; 2COOHF = (S)-2-(2-amino-2-carboxyethyl)benzoic acid, O=C([C@H](Cc1ccccc1C(=O)[*:3])N[*:1])[*:2]; B5(3) = 2,2-bis(4-pentenyl)glycine (stitching residue), C=CCCCC(CCCC=C)(N[*:1])C(=O)[*:2]; B5 = 2-amino-2-(pent-4-en-1-yl)hept-6-enoic acid, C=CCCCC(CCCC=C)(N[*:1])C(=O)[*:2]; Phe(3-COOH) = N[C@@H](Cc1cccc(C(=O)O)c1)C(=O)O; 2F3MeF = Cc1cccc(C[C@H](N[*:1])C(=O)[*:2])c1F; Phe(2-CF3) = N[C@@H](Cc1ccccc1C(F)(F)F)C(=O)O; Phe(2-Cl) = N[C@@H](Cc1ccccc1Cl)C(=O)O; Bta = N[C@@H](Cc1csc2ccccc12)C(=O)O; Lys(iPr) = CC(C)NCCCC[C@H](N)C(=O)O; αAllylPro = C=CC[C@@]1(C(=O)O)CCCN1; tBuAla = CC(C)(C)C[C@H](N)C(=O)O; 3Thi = N[C@@H](Cc1ccsc1)C(=O)O; Aad = N[C@@H](CCCC(=O)O)C(=O)O; Cha = N[C@@H](CC1CCCCC1)C(=O)O; Cit = NC(=O)NCCC[C@H](N)C(=O)O; S8 = C=CCCCCCC[C@](C)(N)C(=O)O; Aib = CC(C)(N)C(=O)O

Columns and labels:
[1] = biological target: full-length beta-Catenin (Uniprot ID P35222) (Homo sapiens (Human)) (UniProt P35222); test: fluorescence polarization competition; full-length beta-catenin, 5FAM-TCF4 10-53 probe
Target sequence in this assay (P35222 whole entry, the tested form may be a part, one chain of several): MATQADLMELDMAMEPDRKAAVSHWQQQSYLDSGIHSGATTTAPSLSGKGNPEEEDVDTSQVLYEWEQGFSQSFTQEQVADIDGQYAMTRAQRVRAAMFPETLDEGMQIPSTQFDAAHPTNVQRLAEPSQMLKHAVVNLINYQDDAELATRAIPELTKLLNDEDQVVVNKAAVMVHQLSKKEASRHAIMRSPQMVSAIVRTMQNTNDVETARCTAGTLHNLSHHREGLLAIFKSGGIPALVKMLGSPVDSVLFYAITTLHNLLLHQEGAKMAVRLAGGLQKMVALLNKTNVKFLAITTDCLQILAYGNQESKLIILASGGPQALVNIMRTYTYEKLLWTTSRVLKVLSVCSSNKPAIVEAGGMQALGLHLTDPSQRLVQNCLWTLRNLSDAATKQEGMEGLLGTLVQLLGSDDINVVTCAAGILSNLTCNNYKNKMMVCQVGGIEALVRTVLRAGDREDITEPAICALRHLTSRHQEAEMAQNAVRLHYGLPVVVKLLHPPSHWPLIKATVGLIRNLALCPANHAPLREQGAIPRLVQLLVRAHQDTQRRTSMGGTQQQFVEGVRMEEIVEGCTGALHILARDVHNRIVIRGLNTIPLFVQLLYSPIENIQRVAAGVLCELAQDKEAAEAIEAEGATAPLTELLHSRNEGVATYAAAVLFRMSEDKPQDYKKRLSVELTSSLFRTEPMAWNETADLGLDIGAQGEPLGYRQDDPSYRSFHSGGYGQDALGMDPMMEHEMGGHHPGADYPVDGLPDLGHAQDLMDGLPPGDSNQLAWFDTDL

[2] = biological target: full-length beta-Catenin (Uniprot ID P35222) (Homo sapiens (Human)) (UniProt P35222); test: fluorescence polarization competition; full-length beta-catenin with 5FAM-TCF4(10-53) probe as competitor
Target sequence in this assay (P35222 whole entry, the tested form may be a part, one chain of several): as above

[3] = biological target: full-length beta-Catenin (Uniprot ID P35222) (Homo sapiens (Human)) (UniProt P35222); test: fluorescence polarization competition; full-length beta-catenin, competitor 5FAM-TCF4(10-53) probe
Target sequence in this assay (P35222 whole entry, the tested form may be a part, one chain of several): as above

[4] = biological target: full-length beta-Catenin (Uniprot ID P35222) (Homo sapiens (Human)) (UniProt P35222); test: fluorescence polarization competition; peptide titrated against 10 nM full-length beta-catenin + 10 nM 5FAM-TCF4(10-53) probe
Target sequence in this assay (P35222 whole entry, the tested form may be a part, one chain of several): as above

Bcat-Halo [5] = biological target: Bcat-Halo (UniProt P35222); test: NanoBRET (Abs IC50) in HEK293 cells; Bcat-Halo / TCF4-Luc
[6] = biological target: full-length beta-Catenin (Uniprot ID P35222) (Homo sapiens (Human)) (UniProt P35222); test: FP competition; full-length beta-catenin + 5FAM-TCF4(10-53) probe
Target sequence in this assay (P35222 whole entry, the tested form may be a part, one chain of several): as above

[7] = biological target: full-length beta-Catenin (Uniprot ID P35222) (Homo sapiens (Human)) (UniProt P35222); test: fluorescence polarization competition; 10 nM full-length beta-catenin, 10 nM 5FAM-TCF4(10-53) probe
Target sequence in this assay (P35222 2-781 limits assumed): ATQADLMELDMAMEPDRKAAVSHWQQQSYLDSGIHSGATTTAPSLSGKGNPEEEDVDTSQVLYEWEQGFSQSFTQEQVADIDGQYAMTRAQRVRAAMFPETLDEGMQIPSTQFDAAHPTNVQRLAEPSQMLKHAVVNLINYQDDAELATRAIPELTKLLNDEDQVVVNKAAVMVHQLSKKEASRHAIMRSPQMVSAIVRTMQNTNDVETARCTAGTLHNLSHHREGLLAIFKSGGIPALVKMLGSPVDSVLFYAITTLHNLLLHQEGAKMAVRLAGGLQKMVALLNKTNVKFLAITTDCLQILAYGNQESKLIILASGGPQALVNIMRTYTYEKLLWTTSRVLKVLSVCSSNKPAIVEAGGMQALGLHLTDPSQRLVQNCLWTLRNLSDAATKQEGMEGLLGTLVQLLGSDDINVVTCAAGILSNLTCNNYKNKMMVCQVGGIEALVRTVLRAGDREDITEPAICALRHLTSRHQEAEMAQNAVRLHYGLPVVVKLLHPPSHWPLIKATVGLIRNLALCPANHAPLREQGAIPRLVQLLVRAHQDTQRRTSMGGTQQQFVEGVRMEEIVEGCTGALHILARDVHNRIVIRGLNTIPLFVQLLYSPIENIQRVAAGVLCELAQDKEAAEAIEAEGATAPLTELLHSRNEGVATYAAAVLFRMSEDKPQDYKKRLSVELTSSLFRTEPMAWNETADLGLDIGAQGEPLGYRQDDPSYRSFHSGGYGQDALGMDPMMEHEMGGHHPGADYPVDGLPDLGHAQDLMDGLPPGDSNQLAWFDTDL

Bcat-Halo [8] = biological target: Bcat-Halo (UniProt P35222); test: NanoBRET in HEK293 cells, Bcat-Halo / TCF4-Luc; absolute IC50
[9] = biological target: full-length beta-Catenin (Uniprot ID P35222) (Homo sapiens (Human)) (UniProt P35222); test: fluorescence polarization competition; 10 nM full-length beta-catenin with 10 nM 5FAM-TCF4 (residues 10-53) probe as competitor
Target sequence in this assay (P35222 2-781 limits assumed): as above

[10] = biological target: Bcat-Halo (beta-catenin HaloTag construct expressed in HEK293 cells) (UniProt P35222); test: NanoBRET Abs IC50 in HEK293 cells; Bcat-Halo with TCF4-Luc as competitor
[11] = biological target: full-length beta-Catenin (Uniprot ID P35222) (Homo sapiens (Human)) (UniProt P35222); test: fluorescence polarization competition; displacement of 5FAM-TCF4(10-53) from full-length beta-catenin
Target sequence in this assay (P35222 whole entry, the tested form may be a part, one chain of several): as the sequence (P35222 whole entry, the tested form may be a part, one chain of several) above

[12] = biological target: full-length beta-Catenin (Uniprot ID P35222) (Homo sapiens (Human)) (UniProt P35222); test: fluorescence polarization competition; full-length beta-catenin, 5FAM-TCF4 10-53 probe as competitor
Bcat-Halo [13] = biological target: Bcat-Halo (UniProt P35222); test: NanoBRET Abs IC50; B-cat-Halo / TCF4-Luc engagement in HEK293 cells
Bcat-Halo [14] = biological target: Bcat-Halo (UniProt P35222); test: NanoBRET Abs IC50, HEK293 cells, B-cat-Halo/TCF4-Luc; competitor TCF4-Luc
[15] = biological target: full-length beta-Catenin (Uniprot ID P35222) (Homo sapiens (Human)) (UniProt P35222); test: FP competition vs 5FAM-TCF4(10-53), full-length beta-catenin
Target sequence in this assay (P35222 2-781 limits assumed): as the sequence (P35222 2-781 limits assumed) above

[16] = biological target: full-length beta-Catenin (Uniprot ID P35222) (Homo sapiens (Human)) (UniProt P35222); test: cell-based or functional assay

Bcat-Halo (beta-catenin HaloTag construct expressed in HEK293 cells), sequence (P35222 whole entry): as the sequence (P35222 whole entry, the tested form may be a part, one chain of several) above
Bcat-Halo, sequence (P35222 whole entry, the tested form may be a part): as the sequence (P35222 whole entry, the tested form may be a part, one chain of several) above

Binder: Ac-[αAllylPro]DI[B5]D[TfeGA]AAFQ[S8]F[Bta]Q-NH2 (staple 1-4, 4-11; not fully specified) [I-610]
IC50 [1]: 54 nM
IC50 [2]: 54 nM
EC50 [3]: 54 nM

Binder: Ac-[αAllylPro]DI[B5]D[Aad]AAFQ[S8]F[Bta]Q-NH2 (staple 1-4, 4-11) [I-612]
IC50 [1]: 64 nM
IC50 [2]: 64 nM
EC50 [4]: 64 nM

Binder: Ac-[αAllylPro]D[tBuAla][B5(3)]DNAAFN[PyrS2″][3Thi][Bta]H-NH2 (staple 1-4, 4-11) [I-837]
EC50 [9]: 5 nM
IC50 [10]: 23800 nM
IC50 [11]: 5 nM

Binder: Ac-[αAllylPro]D[tBuAla][B5(3)]D[Cit]AAFN[PyrS2″][3Thi][Bta]H-NH2 (staple 1-4, 4-11) [I-841]
EC50 [9]: 12 nM
IC50 [10]: 34400 nM
IC50 [11]: 12 nM

Binder: Ac-[αAllylPro]D[tBuAla][B5(12)]DQAAFN[PyrS2][3Thi][Bta]-NH2 (staple 1-4, 4-11) [I-858]
IC50 (Bcat-Halo [14]): > 20000 nM
EC50 [9]: 34 nM
IC50 [15]: 34 nM

Binder: Ac-[αAllylPro]D[tBuAla][B5(3)]DYAAFN[PyrS2″][3Thi][Bta]Q-NH2 (staple 1-4, 4-11) [I-842]
EC50 [9]: 34 nM
IC50 [10]: 47900 nM
IC50 [11]: 34 nM

B2: I-608 (peptide)
peptide: Ac-[αAllylPro]DI[B5(5)]D[EtGA]AAFQ[S8]F[Bta]Q-NH2
modifications: staple 1-4, 4-11; not fully specified; printed as Ac-PL3-Asp-Ile-B5-Asp-EtGa-Ala-Ala-Phe-Gln-S8-Phe-BztA-Gln-NH2
IC50 [1]: 211 nM
IC50 [2]: 211 nM
EC50 [3]: 211 nM

Binder: Ac-[αAllylPro]DI[B5(5)]D[EtGA]AAFQ[S8]F[Bta]Q-NH2 (staple 1-4, 4-11; also: staple isomer 2) [I-609]
IC50 [1]: 80 nM
IC50 [2]: 80 nM
EC50 [3]: 80 nM

Binder: Ac-[αAllylPro]D[tBuAla][B5(12)]DTAAFN[PyrS2][3Thi][Bta]-NH2 (staple 1-4, 4-11; also: earlier eluting HPLC peak (staple isomer)) [I-859]
IC50 (Bcat-Halo [14]): > 20000 nM
EC50 [9]: 36 nM
IC50 [15]: 36 nM

Binder: Ac-[αAllylPro]DI[B5]D[TfeGA]AAFQ[S8]F[Bta]Q-NH2 (staple 1-4, 4-11; also: later-eluting staple isomer) [I-611]
IC50 [1]: 55 nM
IC50 [2]: 55 nM
EC50 [4]: 55 nM

Binder: Ac-[αAllylPro]D[tBuAla][B5(5)]D[2COOHF]AAFF[PyrS2″][2F3MeF][Bta]Q-NH2 (staple 1-4, 4-11) [I-1655]
IC50 [7]: 48 nM
IC50 (Bcat-Halo [8]): 12700 nM

Binder: Ac-[αAllylPro]D[tBuAla][B5(3)]DQAAFN[PyrS2″][3Thi][Bta]Q-NH2 (staple 1-4, 4-11) [I-838]
EC50 [9]: 12 nM
IC50 [10]: 17400 nM
IC50 [11]: 12 nM

Binder: Ac-[αAllylPro]D[tBuAla][B5(12)]DHAAFN[PyrS2][3Thi][Bta]-NH2 (staple 1-4, 4-11) [I-863]
IC50 (Bcat-Halo [14]): > 20000 nM
EC50 [9]: 22 nM
IC50 [15]: 22 nM

Binder: Ac-[αAllylPro]D[tBuAla][B5(3)]DQAAFN[PyrS2″][3Thi][Bta]H-NH2 (staple 1-4, 4-11) [I-839]
EC50 [9]: 7 nM
IC50 [10]: 41900 nM
IC50 [11]: 7 nM

Binder: Ac-[αAllylPro]N[Cha][B5(4)]DQ[Lys(iPr)]AFL[PyrS2]F[Bta]Q-NH2 (staple 1-4, 4-11) [I-1648]
IC50 [7]: 191 nM
IC50 (Bcat-Halo [8]): > 20000 nM

Further lines, results first:

IC50 (Bcat-Halo [5]): 26200 nM
IC50 [6]: 35 nM
Binder: Ac-[αAllylPro]D[tBuAla][B5(5)]D[Phe(3-COOH)]AAFS[PyrS2″][Phe(2-Cl)][Bta]F-NH2 (staple 1-4, 4-11) [I-2029]

IC50 [7]: 36 nM
IC50 (Bcat-Halo [8]): 11000 nM
Binder: Ac-[αAllylPro]D[tBuAla][B5(5)]D[2COOHF]AAFF[PyrS2″][Phe(2-Cl)][Bta]Q-NH2 (staple 1-4, 4-11) [I-1657]

IC50 [12]: 7 nM
IC50 (Bcat-Halo [13]): 2700 nM
B1: I-2577 (peptide)
peptide: Ac-[αAllylPro]D[tBuAla][B5(25)]D[Phe(3-COOH)][Aib]AFS[PyrS2″][3Thi][Bta]SA-NH2
modifications: staple 1-4, 4-11 (inferred); not fully specified; printed as Ac-PL3-Asp-Npg-B5-Asp-3COOHF-Aib-Ala-Phe-Ser-PyrS2-3Thi-BztA-Ser-Ala-NH2

IC50 (Bcat-Halo [5]): 17600 nM
IC50 [6]: 32 nM
Binder: Ac-[αAllylPro]D[tBuAla][B5(5)]D[Phe(3-COOH)]AAFS[PyrS2″][Phe(2-Cl)][Bta]V-NH2 (staple 1-4, 4-11) [I-2028]

IC50 [12]: 6 nM
IC50 (Bcat-Halo [13]): 16100 nM
B3: I-2576 (peptide)
peptide: Ac-[αAllylPro]D[tBuAla][B5(25)]D[Phe(3-COOH)][Aib]AF[dS][PyrS2″][3Thi][Bta][dS]A-NH2
modifications: staple 1-4, 4-11 (inferred); not fully specified; printed as Ac-PL3-Asp-Npg-B5-Asp-3COOHF-Aib-Ala-Phe-dSer-PyrS2-3Thi-BztA-dSer-Ala-NH2

IC50 [12]: 27 nM
IC50 (Bcat-Halo [13]): 29400 nM
B4: I-2593 (peptide)
peptide: Ac-[αAllylPro]D[tBuAla][B5]D[Phe(3-COOH)]QAFL[SPip2][3Thi][Bta]A-NH2
modifications: staple 1-4; staple 4-11 (inferred); also: later-eluting HPLC staple isomer composition

IC50 [12]: 37 nM
IC50 (Bcat-Halo [13]): > 20000 nM
B5: I-2592 (peptide)
peptide: Ac-[αAllylPro]D[tBuAla][B5]D[Phe(3-COOH)]QAFL[SPip2][3Thi][Bta]A-NH2
modifications: staple 1-4; staple 4-11 (inferred); also: earlier-eluting HPLC staple isomer composition

IC50 [12]: 41 nM
IC50 (Bcat-Halo [13]): 4700 nM
B6: I-2579 (peptide)
peptide: Ac-[αAllylPro]D[tBuAla][B5]D[Phe(3-COOH)][Aib]AFK(Ac)[PyrS2][Phe(2-CF3)][Bta]AA-NH2
modifications: staple 1-4, 4-11; not fully specified; printed as Ac-PL3-Asp-Npg-B5-Asp-3COOHF-Aib-Ala-Phe-AcLys-PyrS2-2F3MeF-BztA-Ala-Ala-NH2

IC50 [12]: 5 nM
DLD1 4% Abs IC50 [16]: 4100 nM
IC50 (Bcat-Halo [13]): 5500 nM
B7: I-2578 (peptide)
peptide: Ac-[αAllylPro]D[tBuAla][B5]D[Phe(3-COOH)][Aib]AFK(Ac)[PyrS2][3Thi][Bta]AA-NH2
modifications: staple 1-4, 4-11; not fully specified; printed as Ac-PL3-Asp-Npg-B5-Asp-3COOHF-Aib-Ala-Phe-AcLys-PyrS2-3Thi-BztA-Ala-Ala-NH2

IC50 (Bcat-Halo [5]): 20900 nM
IC50 [6]: 16 nM
Binder: Ac-[αAllylPro]D[tBuAla][B5(5)]D[Phe(3-COOH)]AAFN[PyrS2″][Phe(2-Cl)][Bta]V-NH2 (staple 1-4, 4-11) [I-2032]
